This data set in a line: yeast display, Sf9 membrane polyspecificity reagent, FACS + sequencing; frameworks hold sequencing errors. Summed up:
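Sorting gates, low and high (top ~1%), were placed on anti-HA fluorescence to track expression and on streptavidin fluorescence to track reagent binding. A clone's polyreactivity label is taken from the gate it came out of. The reagent was 10% biotinylated, detergent-solubilized Sf9 membrane, applied for 1 hour at 4 °C to galactose-induced yeast display cells.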
In the case of “QVQLVESGGGLVQAGGSLRLICAASGLTFSGYVMAWYRQAPGKERELVAAISLSGGSTYYADSVKGRFTISRDNAKNTVYLQMNSLKPEDTAVYYCAASTRFYNSYRREYWGQGTQVTVSS”, the “polyreactivity (PSR sort gate)” value was “high polyreactivity”.
As to “QVQLVESGGGLVQAGGSLRLICAASGLTFWVYTMGWYRQAPGKERELVARITSRGASTYYADSVKGRFTISRDNAKNTVYLQMNSLKPEDTAVYYCATDRYRIYPDYDYWGQGTQVTVSS”, the “polyreactivity (PSR sort gate)” value is given as “high polyreactivity”.
On to “QVQLVESGGGLVQAGGSLRLICAASGLTFYVYAMGWYRQAPGKERELVAAISQRGGSTYYADSVKGRFKISRDNAKNTVYLQMNSLNPEDTAVYYCAKYTVQYAISHYDYWGQGTQVTVSS”, for which the “polyreactivity (PSR sort gate)” value is on record as “high polyreactivity”.
“QVQLVESGGGLVQAGGSLRLICAASGNTFKDYTMVWYIQAPRKERDLVASINSGGSTNYADSVKGRFTISRDNAKNTVYLQMNSLKPEDTAVYYCAKRAWSDYNPIDYWGQGTQVSVSS”: the “polyreactivity (PSR sort gate)” value is “low polyreactivity”.
In the case of “QVQLVESGGGLVQAGGSLRLICAASGNTFNVYAMVWYRHAPGKERELVAAITLSGGSTYYADSVKGRFTISRDNAKNTVYLQMNSLKPEDTAVYYCNAEDDGTDYDYWGQGTQVTVSS”, the “polyreactivity (PSR sort gate)” value is given as “low polyreactivity”.
For “QVQLVESGGGLVQAGGSLRLICAASGNTFTGYVMGWNRQAPGKEREYVAAIRSGGSTYYADSVKGRFTISRDNAKNTVYLQMNSLKPEDTSVYYCAKCVTPYRTSAYGYWGQGTQVTVSS”, the “polyreactivity (PSR sort gate)” value was “high polyreactivity”.
For the sequence “QVQLVESGGGLVQAGGSLRLICAASGRIFATYTMGWYRQAPGKERELVAAISRNGGSTYYADSVKGRFTISRDYAKNTVYLQMNSLKTEDTAVYYCNAERRDDRGFDYWGQGTQVTVSS”, the “polyreactivity (PSR sort gate)” value is “low polyreactivity”.
On to “QVQLVESGGGLVQAGGSLRLICAASGRIFDKNAMGWYRQAPGKERELVAAINRSGGRTYYADSVKGRFTISRDNAKNTVYLQMNSLKPEDTAVYYCAADTQGSRYDYWGQGTQVTVSS”, for which the “polyreactivity (PSR sort gate)” value is given as “high polyreactivity”.
The entry for “QVQLVESGGGLVQAGGSLRLICAASGRIFDPYAMGWYRQAPGKERELVASISWSGGRTYYADSVKGRFTISRDNAKNTVYLQMNSLKPEDTAVYYCAARQWYRYKVRFDYWGQGTQVTVSS” is “high polyreactivity”; for “QVQLVESGGGLVQAGGSLRLICAASGRIFEKYAMGWYRQEPGKERELVAAISSSGGSTYYADSVKGRFTISRDIAKNTVYLQMNSLKPDDTAVYYCAKLVVVPFYYWGQGTQVSVSS” it is “high polyreactivity”; for “QVQLVESGGGLVQAGGSLRLICAASGRIFFIYAMGWYRQAPGKERELVAGINRTGGSTYYADSVKGRFTISRDNAKNSVYLHMNSLKPEDTAVYYCAAVSYYASDYRYDYWGKGTQVTVSS” it is “low polyreactivity”.
As for “QVQLVESGGGLVQAGGSLRLICAASGRIFGIYAMGWYRQAPGKERELVARITGGGSTNYADSVKGRFTISRDNPKNTVYLQMNSLNPEDTAVYYCAANVRRIVGNITRYDYWGQGTQVTVSS”, the “polyreactivity (PSR sort gate)” value is given as “low polyreactivity”.
Regarding “QVQLVESGGGLVQAGGSLRLICAASGRIFGRNAMGWYRQARGKERELVAGISSGGTTDYADSVKGRFTISRDNAKNTVYLQMNSLKPEDTAVYYCNVDNDDSAFYAIFVLYDYWGEGTQVTVSS”, the “polyreactivity (PSR sort gate)” value is “low polyreactivity”.
The entry for “QVQLVESGGGLVQAGGSLRLICAASGRIFHVNAMGWYRQAPGKERELVAAISTSGGRTYYADSVKGRFTISRDNAKNTVYLQMNSLKPEDTAVYYCAAVSRAPGLRYDYWGQGTQVTVSS” is “high polyreactivity”; for “QVQLVESGGGLVQAGGSLRLICAASGRIFLYYAMGWYRQAPGKERELVADINSGGNTTYADSVKGRFTISRDNAKNTVYLQMNSLKPEDTAVYYCAADPVFDLWEFVLDYGYDYWGQGTQVTVSS” it is “low polyreactivity”; for “QVQLVESGGGLVQAGGSLRLICAASGRIFNVYAMGWYRQAPGKETELVASITSAGSTYYADSVKGRFTISRDNAKNTVYLQMNSLKPEDTAVYYCNAESYSTWSFGHRYEYDYWGQGTQVTVSS” it is “low polyreactivity”.
In the case of “QVQLVESGGGLVQAGGSLRLICAASGRIFPDYDMGWYRQAPGKERELVAAITQRGGSTYADSVKGRFTISRDNAKNTVYLQMNSLKPEDTAVYYCNARWQRPYDYWGQGTQVTVSS”, the “polyreactivity (PSR sort gate)” value is recorded as “low polyreactivity”.
Regarding “QVQLVESGGGLVQAGGSLRLICAASGRIFRGNAMGWYRQAPGKERELVAAISSGGSTNYADSVKGRFTISRDNEKNTVYLQMNSLKPEDTAVYYCAASRVRSYFGRYYWGQGTQVTVSS”, the “polyreactivity (PSR sort gate)” value is recorded as “high polyreactivity”.
Turning to “QVQLVESGGGLVQAGGSLRLICAASGRIFRIYAIGWYRQAPGKERELVARITYSGGSTYYADSVKGRFTISRDNAKNSVYLLMNSLKPEETAVYYCAADWLGYQYGYWGQGTQVTVSS”, the “polyreactivity (PSR sort gate)” value is reported as “low polyreactivity”.
Take “QVQLVESGGGLVQAGGSLRLICAASGRIFRPYAMGWYRQAPGKEREFVATIRFTTGRTYYADSVKGRFTISRDNAKNTVYLQMNSLKPEDTAVYYCAADFAFVNYAKISYTTHDYWGQGTQVTVSS”: the “polyreactivity (PSR sort gate)” value is recorded as “high polyreactivity”.
For “QVQLVESGGGLVQAGGSLRLICAASGRIFSTYAMGWYRQAPGKERELVAAINKIGGSTYYADSVKGRFTISRDNAKNTVYLQMNSLKPEDTAVYYCAADAPYYPVRRYYYWGQGTQVTVSS”, the “polyreactivity (PSR sort gate)” value is “low polyreactivity”.
With “QVQLVESGGGLVQAGGSLRLICAASGRIFVINAMGWYRQAPGKERELVAAITGGGSTNYADSVKGRFTISRDNAKNPVYLQMNSLKPEDTAVYYCAADYRPVRRFYYSRYDDWGQGTQVTVSS”, the “polyreactivity (PSR sort gate)” value is “low polyreactivity”.
As to “QVQLVESGGGLVQAGGSLRLICAASGRIFYYNAMGWYRQAPGKERELVAVITRSGGRTFYADSVKGRFTISRDNAKNTGYLQMNSLKPEDTAVYYCAARYRYYPVTTRGYYWGQGTQVTVSS”, the “polyreactivity (PSR sort gate)” value was “high polyreactivity”.
Take “QVQLVESGGGLVQAGGSLRLICAASGRIIGKNAMGWYRQARGKERELVAAIRYNGGRTYYADSVKGRFTISRDNAKNTVYLQMNSLKPEDTAVYYCAARWRSWRYKYDYWGQGTQVTVSS”: the “polyreactivity (PSR sort gate)” value is on record as “high polyreactivity”.
Turning to “QVQLVESGGGLVQAGGSLRLICAASGRILDIYALGWYRQAPGKERELVASISGSGSSTYYADSVKGRVTISRDNAKNTVYLQMNSLKPEDSAVYYCNAARSQGYEYATYGYWGQGSQVTVSS”, the “polyreactivity (PSR sort gate)” value is “low polyreactivity”.
Under “QVQLVESGGGLVQAGGSLRLICAASGRILPLYAMGWYRQAPGKERELVADITGSDGSTYYADSVKGRFTISRDNAKNTVYLQMNSLKPEDTAVYYCATDAIGRTPSDPWDYYYWGQGTQVTVSS” stands “low polyreactivity”; under “QVQLVESGGGLVQAGGSLRLICAASGRIYIKNAMGWYRQAPGKERELVAAISSGSSTYYADSVKGRFTISRDNAKNSVYLQMYSLKPEDTAVYYCAAPDYRNGVRYPLDYWGQGTQVTVSS”, “low polyreactivity”; under “QVQLVESGGGLVQAGGSLRLICAASGRIYWTYAMGWYRQAPGKERDLVAAISSGGSTNYADSVKGRFTISRDNAKNTVYLQMNSLKPEDTAVYYCAADRWYREYDYWGQGTQVTVSS”, “low polyreactivity”.
As for “QVQLVESGGGLVQAGGSLRLICAASGRTFEDNAMGWYRQAPGKERELVAAISSDGSRNYADSVKGRFTISRDNAKNTVYLQMNSLKPEDTAVYYCNATVYWPYDWGTSDYWGQGTQVTVSS”, the “polyreactivity (PSR sort gate)” value was “low polyreactivity”.
Regarding “QVQLVESGGGLVQAGGSLRLICAASGRTFENYAMGWYRQAPGKERELVAAISKSGGSTYYADSVKGRFTISRDNAKNPVYLQMNSLKPEDTAVYYCNARPGQSGARFGYWGQGTQVTVSS”, the “polyreactivity (PSR sort gate)” value is recorded as “high polyreactivity”.
